Key:
[1] = molecular target: IFN-γ receptor on 2C4 and mutant γ-1 cells (human HT1080-derived) (human) (UniProt P15260); experiment: binding of 125I-labeled IFN-γ to 10^6 2C4 or γ-1 cells, 90 min at 0° C., non-specific binding subtracted
[2] = molecular target: IFN-γ receptor on 2C4 and mutant γ-1 cells (human HT1080-derived) (human) (UniProt P15260); experiment: binding of 125I-labeled IFN-γ diluted to a lower specific activity, cells at 0° C.

## 125I-labeled human IFN-γ (from UniProt P01579 24-166) (ligand)
[1]
  receptors per cell (specific binding at the highest IFN-γ concentration) (receptors per cell): 6000
[2]
  receptors per cell (saturation binding) (receptors per cell): 10000
